Reference: US20260070976A1 (Alector, published 2026)
Where a chain is given by its changes, count along the chain named.

B1: X4 (antibody, human IgG4, V domains shown)
VH: QVQLVQSGAEVKKPGSSVKVSCKASGYNFLNYDVNWVRQAPGQGLEWMGGIIPIFGTANYAQKFQGRVTITADESTSTAYMELSSLRSEDTAVYYCATGVGAGWFDPWGQGTLVTVSS
VL: DIVMTQSPDSLAVSLGERATINCKSSQSVYFSPNNKNYLAWYQQKPGQPPKLLIYWASTRESGVPDRFSGSGSGTDFTLTISSLQAEDVAVYYCQQYFEEPYTFGQGTRLEIK
B2: X25 (antibody, human IgG4, V domains shown)
VH: B1 VH with G99A
VL: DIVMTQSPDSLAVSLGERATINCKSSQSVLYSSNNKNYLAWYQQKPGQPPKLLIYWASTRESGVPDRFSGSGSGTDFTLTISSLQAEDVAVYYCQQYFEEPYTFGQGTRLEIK
B3: X16 (antibody, human IgG4, V domains shown)
VH: B1 VH with N31H, G99A, P107T
VL: B1 VL with S32D, P33V
notes: conditioned media in the HEK293F assays
B4: X6 (antibody, human IgG4, V domains shown)
VH: B1 VH
VL: B1 VL with S32D, P33V
B5: X26 (antibody, human IgG4, V domains shown)
VH: B1 VH with G99A
VL: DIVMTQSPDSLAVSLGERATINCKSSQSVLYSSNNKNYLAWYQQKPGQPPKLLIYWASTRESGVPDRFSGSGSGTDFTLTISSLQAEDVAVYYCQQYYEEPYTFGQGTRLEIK
B6: X15 (antibody, human IgG4, V domains shown)
VH: B1 VH with N31H, G99A, P107T
VL: B1 VL with Y30F, S32D, P33V
B7: X33 (antibody, human IgG4, V domains shown)
VH: B1 VH with N31H, G99A
VL: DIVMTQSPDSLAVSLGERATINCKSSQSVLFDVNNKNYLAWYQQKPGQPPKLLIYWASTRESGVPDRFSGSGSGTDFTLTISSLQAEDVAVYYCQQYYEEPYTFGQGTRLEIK
B8: X10 (antibody, human IgG4, V domains shown)
VH: B1 VH
VL: B1 VL with Y30F, S32D, P33E, F98Y
B9: X9 (antibody, human IgG4, V domains shown)
VH: B1 VH
VL: B1 VL with Y30F, S32D, P33V, F98Y
B10: X20 (antibody, human IgG4, V domains shown)
VH: B1 VH with N31H, G99A
VL: B1 VL with P33E, F98Y
notes: as for B3
B11: X23 (antibody, human IgG4, V domains shown)
VH: B1 VH with N31H
VL: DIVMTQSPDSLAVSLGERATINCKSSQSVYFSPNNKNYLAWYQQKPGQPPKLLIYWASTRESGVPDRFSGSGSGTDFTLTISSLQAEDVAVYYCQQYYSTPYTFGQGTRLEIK
B12: X27 (antibody, human IgG4, V domains shown)
VH: B1 VH with G99A
VL: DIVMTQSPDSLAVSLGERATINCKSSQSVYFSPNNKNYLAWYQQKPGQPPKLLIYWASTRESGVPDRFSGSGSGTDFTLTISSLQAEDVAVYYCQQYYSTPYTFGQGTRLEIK
B13: X22 (antibody, human IgG4, V domains shown)
VH: B1 VH with N31H
VL: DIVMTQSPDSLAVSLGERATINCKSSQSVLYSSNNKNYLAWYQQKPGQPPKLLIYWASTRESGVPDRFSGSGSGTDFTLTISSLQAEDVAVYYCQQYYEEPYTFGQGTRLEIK
B14: X17 (antibody, human IgG4, V domains shown)
VH: B1 VH with N31H, G99A, P107T
VL: B1 VL with Y30F, S32D, P33E
B15: X32 (antibody, human IgG4, V domains shown)
VH: B1 VH with N31H, G99A
VL: B1 VL with Y30F, S32D, P33V, F98Y
B16: X19 (antibody, human IgG4, V domains shown)
VH: B1 VH with N31H, G99A
VL: B1 VL with Y30F, S32D, P33E, F98Y
B17: X30 (antibody, human IgG4, V domains shown)
VH: B1 VH
VL: B1 VL with S32D, P33V, F98Y
B18: X28 (antibody, human IgG4, V domains shown)
VH: B1 VH with G99A
VL: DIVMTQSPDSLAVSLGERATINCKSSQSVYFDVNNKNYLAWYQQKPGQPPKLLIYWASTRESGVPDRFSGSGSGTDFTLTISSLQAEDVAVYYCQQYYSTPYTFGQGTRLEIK
B19: X5 (antibody, human IgG4, V domains shown)
VH: B1 VH
VL: B1 VL with Y30F, S32D, P33V
B20: X24 (antibody, human IgG4, V domains shown)
VH: B1 VH with N31H
VL: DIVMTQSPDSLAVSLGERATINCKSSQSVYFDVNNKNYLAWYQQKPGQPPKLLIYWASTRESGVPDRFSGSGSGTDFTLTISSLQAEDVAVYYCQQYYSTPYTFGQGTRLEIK
B21: X21 (antibody, human IgG4, V domains shown)
VH: B1 VH with N31H
VL: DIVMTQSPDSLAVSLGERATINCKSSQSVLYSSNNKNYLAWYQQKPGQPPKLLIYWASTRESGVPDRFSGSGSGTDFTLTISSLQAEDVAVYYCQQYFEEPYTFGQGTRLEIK
B22: X31 (antibody, human IgG4, V domains shown)
VH: B1 VH
VL: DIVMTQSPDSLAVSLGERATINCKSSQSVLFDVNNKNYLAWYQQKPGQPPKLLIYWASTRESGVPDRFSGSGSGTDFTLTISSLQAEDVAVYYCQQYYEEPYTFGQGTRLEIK

How the values were obtained:
[1] = molecular target: T1, recombinant cynomolgus PILRA (SEQ ID NO:120) (cynomolgus monkey); assay: SPR, Carterra LSA, antibody amine-coupled, kinetic fit
T1 construct: also called cyno PILRA
T1 sequence (chain, as listed by the source limits assumed): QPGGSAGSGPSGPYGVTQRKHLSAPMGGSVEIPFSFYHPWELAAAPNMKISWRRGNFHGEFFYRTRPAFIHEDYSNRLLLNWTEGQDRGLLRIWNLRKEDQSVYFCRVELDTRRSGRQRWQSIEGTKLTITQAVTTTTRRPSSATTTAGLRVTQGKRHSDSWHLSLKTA
Method: (§1) Binding kinetics of human anti-PILRA-IgG4 antibodies were evaluated by surface plasmon resonance (SPR) using a Carterra LSA instrument (Carterra, Salt Lake City, UT). Antibodies were immobilized in duplicate arrays onto an HC30M sensor chip (Carterra) by amine coupling according to the manufacturer's protocol. After priming the immobilized antibodies with HBS-EP+ (Teknova, Hollister, CA, #8022) running buffer with 0.5 mg/mL BSA (MP Biomedicals LLC, #820451), the immobilized antibodies were tested for their ability to bind to recombinant human PILRA (SEQ ID NO:1) and cynomolgus PILRA (SEQ ID NO:120) and to human PILRB (SEQ ID NO:105) and cynomolgus PILRB (SEQ ID NO:121).
(§2) For binding kinetics analysis, human and cynomolgus PILRA and PILRB analytes were diluted in running buffer to 440 to 470 nM, and diluted 3-fold serially five times, to 1.8 to 1.9 nM, and injected for five minutes over the entire chip using the single channel flow cell to measure association of binding to the immobilized antibodies. Dissociation of the analytes was measured for five minutes, followed by regeneration of the chip with two 30-second injections of 10 mM glycine pH 2.0.

recombinant human PILRA [2] = molecular target: T2, recombinant human PILRA (human, UniProt Q9UKJ1 20-197); assay: as above
T2 sequence (Q9UKJ1 20-197 limits assumed): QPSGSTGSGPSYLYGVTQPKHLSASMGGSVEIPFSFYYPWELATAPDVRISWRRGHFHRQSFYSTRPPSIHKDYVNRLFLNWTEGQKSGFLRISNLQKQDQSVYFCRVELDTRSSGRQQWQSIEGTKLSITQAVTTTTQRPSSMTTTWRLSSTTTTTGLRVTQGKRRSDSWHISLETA
Method: as §1, §2

recombinant human PILRB [3] = molecular target: T3, recombinant human PILRB (human, UniProt Q9UKJ0 20-191); assay: SPR, Carterra LSA, steady-state fit
T3 sequence (Q9UKJ0 20-191 limits assumed): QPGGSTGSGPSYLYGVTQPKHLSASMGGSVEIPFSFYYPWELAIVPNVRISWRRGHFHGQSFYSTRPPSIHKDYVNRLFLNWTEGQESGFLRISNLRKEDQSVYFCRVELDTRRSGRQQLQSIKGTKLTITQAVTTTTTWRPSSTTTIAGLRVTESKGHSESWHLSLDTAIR
Method: as §1, §2
For the human PILRB interactions, the binding was too weak and heterogenous for kinetic constants to be calculated in this assay. Therefore, steady-state affinities were estimated based on the binding level of each analyte concentration at the end of the injections.

[4] = molecular target: cell surface PILRA on human monocytes (human, UniProt Q9UKJ1 20-303); assay: cell-based or functional assay
cell surface PILRA on human monocytes, sequence (Q9UKJ1 20-303): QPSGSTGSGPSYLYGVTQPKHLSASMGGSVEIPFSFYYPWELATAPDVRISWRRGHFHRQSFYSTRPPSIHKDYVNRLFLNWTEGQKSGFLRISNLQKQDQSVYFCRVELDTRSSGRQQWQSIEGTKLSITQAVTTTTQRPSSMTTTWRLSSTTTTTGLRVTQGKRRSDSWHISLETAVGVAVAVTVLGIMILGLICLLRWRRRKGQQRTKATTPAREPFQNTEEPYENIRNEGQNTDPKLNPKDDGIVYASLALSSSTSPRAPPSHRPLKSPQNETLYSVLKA

[5] = molecular target: T4, human PILRA G78 on HEK293F cells (human, UniProt Q9UKJ1 20-303); assay: FACS on HEK293F cells, binding on human PILRA (hA) over human PILRB (hB)
T4 construct: also called hA; G78 OE
T4 sequence (Q9UKJ1 20-303 R78G): as the sequence (Q9UKJ1 20-303) above, with R59G counted along it
Method: Conditioned media samples containing the tested anti-PILRA antibodies were assessed for binding to HEK293F cells overexpressing human PILRA (hA), human PILRB (hB), and cynomolgus PILRA (cA) by FACS. The conditioned media containing the tested antibodies were incubated with the cells for 30 min at 4° C., washed twice, and then detected with goat anti-human IgG secondary antibody (Alexa Fluor 647) at 1:1000 dilution. The cells were analyzed by flow cytometry on FACS Canto II, and for all cell lines, the reported MFI values were calculated for each conditioned media. These antibodies were evaluated for nonspecific binding using a baculovirus particle (BVP) assay (Jain T., Sun T., Durand S., Hall A., Houston N. R., Nett J. H., Sharkey B., Bobrowicz B., Caffry L, Yu Y., et al. Biophysical properties of the clinical-stage antibody landscape. Proc. Natl. Acad. Sci. USA. 2017; 114:944-949. Doi: 10.1073/pnas.1616408114.). The BVP scores are listed in Table 9, and the higher the score the more nonspecific binding that occurred.

recombinant human PILRB [6] = molecular target: T3, recombinant human PILRB; assay: SPR, Biacore T200, antibody captured by anti-Fab
Method: (§3) A subset of these antibodies was further evaluated using the Biacore T200 (Cytiva). Anti-PILRA antibodies were diluted to 10 μg/mL and captured using an anti-Fab (Cytiva, #28958325) surface on a CM4 chip, that was prepared by amine coupling according to the manufacturer's protocol. Human PILRA and cynomolgus PILRB were diluted in running buffer to 130 nM, and diluted 4-fold serially, twice, to 8 nM. Human PILRB was similarly diluted from 260 nM to 16 nM. These analytes were injected and allowed 2 minutes of association, followed by dissociation for 5 minutes.
(§4) Data were analyzed using Biacore evaluation software to generate kinetic constants. The equilibrium dissociation constants (KD) were calculated from the fitted association and dissociation rate constants (k-on and k-off) for each of the anti-PILRA antibodies. These Kn values are indicated with asterisks in Table 8 below.

recombinant human PILRA [7] = molecular target: T2, recombinant human PILRA; assay: SPR, Biacore T200, antibody captured by anti-Fab
Method: as §3, §4

Row | Binder | Kd [1] [nM] | Kd (recombinant human PILRA [2]) [nM] | Kd (recombinant human PILRB [3]) [nM] | Hu Mono DR EC50 [4] [µg/mL] | hA/hB binding ratio on HEK293F [5] | Kd (recombinant human PILRB [6]) [nM] | Kd (recombinant human PILRA [7]) [nM]
1 | B1 | 0.2 | 12 | 138 |  |  |  | 
2 | B2 | 0.3 | 7 | 211 |  |  |  | 
3 | B3 | 0.1 | 0.5 | 2 | 0.005 | 6.1 |  | 
4 | B4 | 0.1 | 3.1 | 35 |  |  |  | 
5 | B5 | 0.3 | 8.1 | 199 |  |  |  | 
6 | B6 | 0.1 | 0.1 | 2 |  |  |  | 
7 | B7 | 0.1 | 0.6 | 2 |  |  |  | 
8 | B8 | 0.3 | 3.2 | 68 |  |  |  | 
9 | B9 | 0.1 | 2.8 | 39 |  |  |  | 
10 | B10 | 0.1 | 0.5 | 2 | ~0.02 | 6.7 |  | 
11 | B11 | 0.3 | 3.9 | 35 |  |  |  | 
12 | B12 | 0.5 | 13 | 87 |  |  |  | 
13 | B13 | 0.2 | 2.2 | 54 |  |  | 14 | 6.2
14 | B14 | 0.1 | 0.4 | 2 |  |  |  | 
15 | B15 | 0.1 | 0.1 | 2 |  |  |  | 
16 | B16 | 0.1 | 0.3 | 2 |  |  |  | 
17 | B17 | 0.1 | 3.3 | 43 |  |  |  | 
18 | B18 | 0.3 | 3.8 | 33 |  |  |  | 
19 | B19 | 0.1 | 2.4 | 35 |  |  |  | 
20 | B20 | 0.2 | 1.7 | 16 |  |  |  | 
21 | B21 | 0.1 | 1.8 | 43 |  |  |  | 1.9
22 | B22 | 0.1 | 2.2 | 38 |  |  |  | 
